Read-outs that look alike come from different tables or passages of the source.

Assay in all cases: fluorescence polarisation
On the technique in general: Polarisation of emitted light reports the rotation of a fluorescent probe.

The target in assay [1] is ERα-ctp (1), N-fluorescein-labeled C-terminal hexaphosphopeptide of ERα.
Assay [2] has as its target GpIBα-ctp (3), N-fluorescein-labeled C-terminal hexaphosphopeptide of GpIBα.
Assay [3] addresses Task3-ctp (2), N-fluorescein-labeled C-terminal hexaphosphopeptide of Task3.
The target in assay [4] is GpIBα-ctp (3), N-fluorescein-labeled C-terminal hexaphosphopeptide of GpIBα. The source holds these as a separate data set.
Assay [5] addresses Task3-ctp (2), N-fluorescein-labeled C-terminal hexaphosphopeptide of Task3. The source holds these as a separate data set.
The target of assay [6] is ERα-ctp (1), N-fluorescein-labeled C-terminal hexaphosphopeptide of ERα. The source holds these as a separate data set.

For the molecule “human 14-3-3ε (from UniProt P62258 1-255) (natural protein)”, the Kd in assay [1] was 3400 nM; in assay [2] it was 28000 nM; in assay [3], 6000 nM; in assay [4], 1700 nM; in assay [5], 160 nM.

Regarding “human 14-3-3ζ (from UniProt P63104 1-245) (natural protein)”, the Kd in assay [1] came out at 1500 nM; in assay [2], 20000 nM; in assay [3], 1300 nM.

On to “human 14-3-3β (from UniProt P31946 1-246) (natural protein)”, for which the Kd in assay [1] was 720 nM; in assay [2], 18000 nM; in assay [3] it was 2400 nM; in assay [4], 870 nM.

B1: human 14-3-3σ (natural protein)
chain: MERASLIQKAKLAEQAERYEDMAAFMKGAVEKGEELSCEERNLLSVAYKNVVGGQRAAWRVLSSIEQKSNEEGSEEKGPEVREYREKVETELQGVCDTVLGLLDSHLIKEAGDAESRVFYLKMKGDYYRYLAEVATGDDKKRIIDSARSAYQEAMDISKKEMPPTNPIRLGLALNFSVFHYEIANSPEEAISLAKTTFDEAMADLHTLSEDSYKDSTLIMQLLRDNLTLWTADNAGEEGGEAPQEPQS
As to B1, the Kd in assay [1] amounted to 6600 nM; in assay [2], 47000 nM; in assay [3], 2100 nM.

B2: human 14-3-3τ (natural protein)
chain: MEKTELIQKAKLAEQAERYDDMATCMKAVTEQGAELSNEERNLLSVAYKNVVGGRRSAWRVISSIEQKTDTSDKKLQLIKDYREKVESELRSICTTVLELLDKYLIANATNPESKVFYLKMKGDYFRYLAEVACGDDRKQTIDNSQGAYQEAFDISKKEMQPTHPIRLGLALNFSVFYYEILNNPELACTLAKTAFDEAIAELDTLNEDSYKDSTLIMQLLRDNLTLWTSDSAGEECDAAEGAEN
On to B2, for which the Kd was 1100 nM in assay [1], 20000 nM in assay [2], 2200 nM in assay [3] and 130 nM in assay [6].

What is called Kd is the free concentration of one partner at which half of the binding sites on the other are occupied at equilibrium, for simple one-to-one binding.

For the origin of these results see article PMC7542595.
